Assay [1] deals with 5-carboxyfluorescein (5-FAM, single isomer) labelled JARID2-K116me3 peptide. In words: fluorescence polarisation. (In general: Fluorescence polarisation rises when a labelled molecule tumbles more slowly, as on binding a larger partner.)
The target in assay [2] is EED (amino acids 40-441) (human) (UniProt O75530). In words: fluorescence polarisation.
EED (amino acids 40-441) (human), sequence (O75530 40-441): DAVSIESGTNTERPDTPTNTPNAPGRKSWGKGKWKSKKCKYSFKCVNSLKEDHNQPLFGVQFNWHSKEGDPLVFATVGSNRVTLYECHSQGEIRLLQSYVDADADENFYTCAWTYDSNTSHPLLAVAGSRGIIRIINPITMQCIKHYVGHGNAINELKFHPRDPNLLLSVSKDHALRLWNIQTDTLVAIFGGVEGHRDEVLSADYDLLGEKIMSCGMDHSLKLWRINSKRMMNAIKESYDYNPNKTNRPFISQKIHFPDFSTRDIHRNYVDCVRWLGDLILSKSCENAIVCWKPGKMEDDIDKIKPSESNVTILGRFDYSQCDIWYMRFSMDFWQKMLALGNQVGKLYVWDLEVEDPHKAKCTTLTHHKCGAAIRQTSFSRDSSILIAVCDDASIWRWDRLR

EED (amino acids 40-441), sequence (O75530 40-441): as above

As for “EED (amino acids 40-441) (from UniProt O75530-1 40-441) (domain or fragment)”, in assay [1], the Kd was 8.07 µM.

The substance H3K27me3 peptide showed a Kd in assay [2] of 41.3 µM.

In assay [2], PALI1-K1214me3 peptide had a fold lower affinity than PALI1-K1219me3 and PALI1-K1241me3 of 4 fold.

On to PALI1-K1219me3 peptide, for which the Kd in assay [2] was found to be 7.53 µM.

The substance PALI1-K1241me1 peptide came in with a dissociation constant Kd in assay [2] of 240 µM.

For the substance PALI1-K1241me2 peptide, in assay [2], the Kd is 18.8 µM.

As to PALI1-K1241me3 peptide, the Kd in assay [2] was 8.47 µM. Compared with the last substance, the Kd is about 2.2-fold lower.

As a reminder, the Kd is the concentration at which binding is half-saturated. The low end stands for tighter binding, the high end for weaker binding.

The values are drawn from publication doi:10.1101/2020.05.28.122556.
